Measurements taken from US20230036503A1, “Fusion Protein, Amino Acid Sequence Thereof, Coding Nucleotide Sequence Thereof, Preparation Method Thereof and Use Thereof” (priority 2019, published 2023).
“Also recorded” adds a separate entry of the source.

B1: His-MP7: heptapeptide fusion protein, SEQ ID NO: 15: elf18, csp22, flg22, flgII-28, nlp20, pep1, pip1 in sequence, linkers GAG and AGA, HIS tag (protein)
chain: MGSSHHHHHHSSGLVPRGSHMASMTGGQQMGRDPNSSSVDKLSKEKFERTKPHVNVGTIGGAGAVGTVKWFNAEKGFGFITPDDGAGAQRLSTGSRINSAKDDAAGLQIAGAGESTNILQRMRELAVQSRNDSNSATDREAGAGAIMYSWYFPKDSPVTGLGHRAGAATKVKAKQRGKEKVSSGRPGQHNAGARLASGPSPRGRGH
modifications: his-MP7

Key:
[1] = test system: callose accumulation of Arabidopsis; assay: Intensity of immune responses of various fusion proteins: callose fluorescence in Arabidopsis leaves quantified by ImageJ; type: in vivo; details: 100 nmol final concentration
Protocol: Computation was conducted through image processing software ImageJ according to obtained callose accumulation fluorescence images, and the immune activation ability of the fusion proteins to the plants was quantified by virtue of the fluorescence intensity. Computing methods were as follows:
Measured IntDen=Integrated Density=Integrated Optical Density;
Measured Area=Image Area;
MD(mean optical density)=IntDen/Area.

[2] = test system: Magaporthe grisea; type: in vivo; details: rice leaves, 100 nM
[3] = test system: Tobacco mosaic virus (TMV); assay: Resistance of tobacco plants to Tobacco mosaic virus (disease grading, disease index, control effect)
Protocol: The experiment was divided into an experimental group and a control group (with 20 lines of tobacco plants in each group). After the experimental group was injected with a recombinant protein, viruses were inoculated to the experimental group; and after the control group was injected with the sterile water, the viruses were inoculated to the control group. It was inoculated through the following steps:
(1) Fresh leaves infected with TMV were added to a small amount of sterilized phosphate buffer (1:200) and were ground in a mortar and filtered with sterilized gauze to remove the residues of the infected leaves. The above fresh juice was prepared as an inoculum and a concentration of the inoculum of the TMV was adjusted to obtain an aqueous solution of TMV.
(2) When tobacco seedlings were in the 4-5 true leaves period, fully expanded true leaves were selected; a suitable amount of quartz sands were uniformly scattered on the leaf surfaces; and the leaf surfaces were slightly rubbed by an absorbent ball dipped with the aqueous solution of TMV for 1-2 times and then immediately washed with water.
(3) After inoculation for 21 days, the morbidity of tobacco plants was observed. With each plant as a unit for assessment, the grading standard was as follows:
Grade 0: freedom from disease
Grade 3: newborn leaf had yellow-green stripes parallel to the leaf vein with slightly curling;
Grade 7: plant was dwarfed, leaf had yellowish-white strips with curling, and newborn leaves were twisted and prolapsed and could not be normally expanded; and
Grade 9: plant was dwarfed seriously and subjected to chlorina or died.
A disease index and the control effect were computed with the following methods:
Disease index=[Σ(number of infected plants in various grades×relative grade value)/(total number of plants investigated×9)]×100;
Control effect (%)=[(control disease index-treatment disease index)/control disease index]×100.

[4] = test system: oxidative burst immune response in corn leaves; assay: Reactive oxygen species / oxidative burst in corn leaves (DAB staining); type: in vivo; details: 100 nM, corn leaves soaked 48 h, FIG. 4
Protocol: Oxidative burst was considered as one of earliest responses of plants to pathogenic microorganisms and played an important role in defense responses of the plants. […] After the plants were infected by the pathogenic microorganisms, the reactive oxygen species could be produced and accumulate, and oxidative burst could be caused. With plant corns as a material and the reactive oxygen species as an immune index, the immune activation ability of 100 nM fusion protein His-MP7 was analyzed. A specific experimental operation was as follows:
Two-week old corn leaves were taken, the intermediate portion of each leaf was taken, shorn with a length of 5 cm and immersed into 1 μg/mL auxin 6BA solution. It was added with the fusion protein His-MP7 with a final concentration of 100 nM, with an aqueous solution of auxin 6BA being served as a blank control. The intermediate portions were soaked for 48 h, stained for 12 h using 1 mg/mL DAB solution, eluted for 12 h by a washing buffer (ethyl alcohol:acetic acid:glycerin=3:1:1) and observed after being placed for 30 min.

[5] = test system: Pseudomonas syringae DC3000; assay: Resistance of Arabidopsis to DC3000 pathogenic bacteria (colony growth in injected leaves)
Protocol: (1) A strain DC3000 of Pseudomonas syringae was inoculated to 20 mL of SOC+str (streptomycin) liquid medium for overnight culture for 14-16 h at 28° C., OD600 was determined, and a product was subjected to gradient dilution until OD600 was 0.00005 to obtain a bacterial solution.
(2) The fusion protein His-MP7 was added in the bacterial solution until a final concentration was 100 nM, and a bacterial solution, to which water was added, was served as a control. Meanwhile, four-week old healthy Arabidopsis leaves were injected with the bacterial solution and were sampled at Day 0 (four leaves from one plant) and Day 3 (five plants, two leaves from each plant) respectively. Each leaf was punched by a puncher. The punched small discs were taken; 500 μL of 10 mM MgCl2 was added at Day 0; the small discs were ground in a 1.5 mL EP tube; and 50 μL of each of four samples in the same treatment was spotted on one SOC+str (streptomycin) solid plate (the plate required to be blow-dried, and then the shape of each spotted sample could be kept) and cultured for 16-24 h at 28° C. Samples were photographed and observed for statistics of colony growth.
(3) At Day 3, the two leaves on each plant of the five plants were punched to take small discs similarly; 250 μL of 10 mM MgCl2 was added; and the small discs were ground in the 1.5 mL EP tube and diluted by MgCl2 stepwise until 1×10^−5.

[6] = test system: callose accumulation of Arabidopsis; assay: Callose accumulation in Arabidopsis leaves infiltrated with fusion protein or PAMP polypeptide (aniline blue staining); type: in vivo
Protocol: In immune responses of plant cells, callose might accumulate. The callose might enhance the mechanical strength of plant cell walls and block channels through which pathogens spread between the cells, thereby limiting invasion of pathogenic microorganisms. With a model plant Arabidopsis as a material and callose accumulation as immune index, the immune activation abilities of different concentrations of fusion proteins His-MP7 were analyzed and were compared to that of a single PAMP polypeptide. A specific experimental operation was as follows:
Final concentrations of the fusion protein His-MP7 and a polypeptide flg22 were adjusted to be 1 μM, 100 nM and 10 nM respectively, with water being served as a control. Four-week old Arabidopsis leaves were infiltrated with an injection syringe permeation method for 12 h, the treated leaves were collected and put in a 6-well plate, and a suitable amount of washing buffer was added for 4 h incubation. The washing buffer was substituted by an aniline blue staining solution with a final concentration of 0.1 mg/mL for staining at a room temperature in the dark for 1 h, and the callose accumulation was observed using a 10 times objective lens of a fluorescence microscope. Each treatment contained three biological replicates with three repeated experiments.
A final concentration of the fusion protein His-MP7 and each of polypeptides flg22, nlp20, elf18, pip1, pep1, csp22 and flgII-28 was adjusted to be 100 nM, with csp22 and flgII-28 being served as negative controls. The four-week old Arabidopsis leaves were infiltrated with an injection syringe permeation method; and a sample treatment method was the same as mentioned above.

[7] = 21 days after TMV inoculation, 20 plants per group

| Molecule | MD (mean optical density = IntDen/Area) of callose fluorescence ([1]; H2O 0.002-0.003) | Immune activation ([1]; H2O: No) | scab area percentage ([2]; 3-4 days, untreated 11.6%) [%] | infection rate of Magaporthe grisea lowered by ([2]; versus untreated) [%] | Number of Infect Tobacco Plants, 0 grade [3, 7] [plant] | Number of Infect Tobacco Plants, 1 grade [3, 7] [plant] | Number of Infect Tobacco Plants, 3 grade [3, 7] [plant] | Number of Infect Tobacco Plants, 5 grade [3, 7] [plant] | Number of Infect Tobacco Plants, 7 grade [3, 7] [plant] | Number of Infect Tobacco Plants, 9 grade [3, 7] [plant] | Control effect ([3]; tobacco, TMV, 21 days, versus H2O control) [%] | Disease index ([3]; tobacco, TMV, 21 days, H2O control 78.9) | induction of oxidative burst immune response [4] | bacterium growth index ([5]; 100 nM in bacterial solution, Arabidopsis leaves, FIG. 5, control 5.38) | reduction of growth amount of Pseudomonas syringae DC3000 ([5]; 100 nM, versus water control) | intensity of callose accumulation compared with flg22 ([6]; 100 nM His-MP7 versus 1 μM flg22, FIG. 2) | callose accumulation of Arabidopsis ([6]; 100 nM, leaf infiltration 12 h, FIG. 2) | immune activity effect compared with single PAMP polypeptides (callose accumulation) ([6]; all at 100 nM, flg22, nlp20, elf18, pip1, pep1, csp22, flgII-28, FIG. 3) |
| --- | --- | --- | --- | --- | --- | --- | --- | --- | --- | --- | --- | --- | --- | --- | --- | --- | --- | --- |
| TP10 | 0.378 | Yes | – | – | – | – | – | – | – | – | – | – | – | – | – | – | – | – |
| B1 | – | – | 1.9 | 83.6 | 1 | 11 | 6 | 2 | 0 | 0 | 72.5 | 21.7 | could induce the oxidative burst immune response | 4.05 | ≥ 10 | equivalent to that induced by 1 μM PAMP polypeptide flg22 | obviously induced | superior to those of all the PAMP polypeptides; also recorded: superior to that of a single PAMP polypeptide |
